According to the nanobody polyreactivity screen of Harvey et al. (2022):

experiment: yeast display, Sf9 membrane polyspecificity reagent, FACS + sequencing; frameworks hold sequencing errors
Procedure, shortened: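 A synthetic nanobody library was expressed on Saccharomyces cerevisiae BJ5465 by galactose induction for 36–48 hours. The library was stained for 1 hour at 4 °C with 10% biotinylated, detergent-solubilized Sf9 membrane reagent and enriched with streptavidin microbeads before FACS. Low and high (top ~1%) gates were set on anti-HA fluorescence for expression and streptavidin fluorescence for reagent binding, and each polyreactivity label reflects the gate of origin.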

Row | Sequence | polyreactivity (PSR sort gate)
1 | QVQLVESGGGLVQAGVSLRLSCAASGSTFYWYAMGWYRQAPGKERELVAAITYSSGRTYYADSEKGRFTISRDNAKNTVYLQMNSLKPEDTAVYYCGWSALNGYDYWGQGTQVTVSS | high polyreactivity
2 | QVQLVESGGGLVQAGGSLRLSCAASGSTFARNAMGWYRQAPGKERELVAAITNAGDTNYADSVKGRFTISRDNAKNTVYLQMNSLKPEDTAVYYCAAEPILIDEYWGQGTQVTVSS | low polyreactivity
3 | QVQLVESGGGLVQAGGSLRLSCAASGRTFDGYAMGWYRQAPGKERELVAAISGSGGRTYYADSVKGRFTISRDNAKNTVYLQMNSLKPEVTAVYYCRGYYKYYPDEYDYWGQGTQVTVSS | high polyreactivity
4 | QVQLVESGGGLVQAGGSLRLSCAASGSTFRNYAMGWYRQAPGKDRELVAAISGSGGRTNYADSVKGRFTISRDNAKTTVYLQMNSLKPEDTAVYYCAASGGRNWWAARNYYWGQGTQVTVSS | low polyreactivity
5 | QVQLVESGGGLVQAGGSLRLSCAASGFTFYLYTMAWYRQAPGKERELVATITSDGGTNYADSVKGRFTISRDNAKNTVYLQMNSLKPEDTAVYYCARTARRRYQPYEYWGQGTQVTVSS | low polyreactivity
6 | QVQLVESGGGLVQAGGSLRLSCAASGSTSLSYVMGWYRQAPGKERELVASITSSGGSTYYADSVKGRFTISRDNAKNTVYLQMNSLKPEDTAVYYCNARSYIDPFSPTSYYRYYWGQGTQVTVSS | high polyreactivity
7 | QVQLVESGGGLVQAGGSLRLSCAASGRTLGGYTMGWYRQAPGKEREVVAGISFRGDSTYYADSVKGRFTLSRANAKNTVYLQMNSLKPEDTAVYYCNARGTPWRYGGDYWGQGTQVTVSS | low polyreactivity
8 | QVQLVESGGGLVQAGGSLRLSCAASGRTFTTNAMGWYSQARGKERELVAAINSGGSTNYADSVKGRFTISRDNAKNTVYLQMNRLKPEDTAVYYCAKRQRDYSSVFEVDYWGQGTQVTVSS | low polyreactivity
9 | QVQLVESGGGLVQAGGSLRLSCAASGRTFETNAMGWYRQAPGKERELVASINWSGGSTYYADSVKGRFTISRDNAKNTVYLQMNILKPEDTAVYYCAADHSYWDWWSYYYWGQGTQVTVSS | low polyreactivity
10 | QVQLVESGGGLFQAGGSLRLSCADSGRIFTSNAMGWYRQATGKVRELVAVISRRGGSTYYADSVKGRFTISRDNAKNTVYLQMNSLKPEDTAVYYCNARVYWYYPMDYWGQGTQVTVSS | low polyreactivity
11 | QVQLVESGGGLVQAGGSLRLSCAASGRTFSVNAMGWYRQAPGKERELVAAITSGASTNYADSVKGRFTISRDNAKNTVYLQMNSLKPEDTAVYYCAADYLYHQTSRGKYYSWGQGTQVTVSS | low polyreactivity
12 | QVQHVESVGGLVQAGGSLRLSCAASGRTLKKNAMGWYRQAPGKERELVAAISTGGRTYYADSVKGRFTISRDNAKNTVYLQMNSLKPEDTAVYYCNFQFLSWSTIWGNDYWGQGTQVTVSS | high polyreactivity
13 | QVQLVESGGGLVQAGGSLRLSCAASGFTIYANAMGWYRQAPGKERELVAAISSNGGSTYYADSVKGRFTISRDNAKNTVYLQMKSLKPEDTAVYSCADYFGSVLRSTIYDYWGQGTQVTVSS | low polyreactivity
14 | QDQLVESGGGLVQPGGSLRLSCAASGSTFANYAMGWYRQAPGNERQLVAALDHSGGSTYYADSVKGRFTISRDNAKNPVYLQMNSLKPEDTAVYYCNVVNGWLDVSSPDDSLAYLYDYWGQGSQVTVSS | low polyreactivity
15 | QVQLVESGGGLVQAGGSLRLSCAASGSIFIYYAMGWYRQAPGKEREFVADISYSGDSTYYADSVKGRFTISRDNAKNTVYFQMNSLKPEDTAVYYCAADTWYDAGVYPYDYWGQGTQVTVSS | high polyreactivity
16 | QVQLVESGGGIVQAGGSLRLSCAASGSIFKHYAMGWYRQAPGKERELVATIDYLGGRTYYADSVKGRFTISRDNAKNTVYLQMNSLKPEDTAVYYCAASRYSGKIRGEDYWGQRTQVTVSS | low polyreactivity
17 | QVQLVESGGGLVQAGGSLRLSCAASGSTFVGYAMGWYRQAPGKERELVAAISERGGRTYYADSVKGRFTISRDNAKNTVYLQMNSLKPEDTAVYYCAAYGRYPRLYTYYYWGQGTQVTVSS | high polyreactivity
